Measured values published in the nanobody polyreactivity screen of Harvey et al. (2022).

experiment: yeast display, Sf9 membrane polyspecificity reagent, FACS + sequencing; frameworks hold sequencing errors
Procedure, shortened: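 In a synthetic yeast display library (Saccharomyces cerevisiae BJ5465), nanobody expression was induced with galactose for 36–48 hours. FACS gates were set low and high (top ~1%) using anti-HA fluorescence for expression and streptavidin fluorescence for binding of the Sf9 membrane reagent. Each polyreactivity label is drawn from the gate of origin.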

Which “polyreactivity (PSR sort gate)” value does the source give for “QVQLVESGGGLVQAGGSLRLSCAASGYNFIVYTMGWYRQAPGKERELVAAISSGGITDYADSVKGRFTISRDNAKNTVYLQMNSLKPEDTAVYYWGQGTQVTVSS” here?
The value was “low polyreactivity”.

Which “polyreactivity (PSR sort gate)” value does the source give for “QVQLVESGGGLVQAGGSLRLSCAASGYNFPLYSMGWYTQAPGKERELVADINIGGASTYYADSVKGRFTISRDNAKNTVYLQMNSLKPEDTAVYDCAKEYFDGYFPTFDYDYWGKGTQVTVSS” here?
The value was “low polyreactivity”.

Which “polyreactivity (PSR sort gate)” value does the source give for “QVQLVESGGGLVQAGGSLRLSCAASGYSLYANAKGWSRQAPGKERELVASITFGDDSTYYADSVKGRFTISRDNAKNTVDLQMNSLKPEDTAVYYCNADHKVEVEDDYCGQGTQVTVSS” here?
The value was “low polyreactivity”.

With “QVQLVESGGGLVQAGGSLRLSCAASGYTFAGNAMGWYRQAPGKERELVAAISRSGGRTYYADSVKGRFTISRDNAKNTVYLQMNSLKPEDTAVYYCAAYGYKYDYWGQGTQVTVSS” as the sequence, how does the “polyreactivity (PSR sort gate)” value read?
The value was “high polyreactivity”.

For “QVQLVESGGGLVQAGGSLRLSCAASGYTFASYDMGWYRQAPGKERELVAAIDWSGGSTYYADSVKGRFTISRDNAKNTVYLQMNSLKPEDTAVYYCAAERPWTYGSDGMDYWGQGTQVTVSS”, which “polyreactivity (PSR sort gate)” value is on record?
Its value is “low polyreactivity”.

For “QVQLVESGGGLVQAGGSLRLSCAASGYTFDVYAMGWYRQAPGTERELVAAISDSGGSTYYADSVKGRFTISRDNAKNTVYLQMNSLKPEDTAVYFCAAGYDYFYAIVSPSEYDYWGQGTQVTVSS”, which “polyreactivity (PSR sort gate)” value is on record?
Its value is “low polyreactivity”.

For “QVQLVESGGGLVQAGGSLRLSCAASGYTFDYNAMGWYRQAPGKEREFVATITASGDSTYYADSVKGRFTISRDNAKNTVYLQMNSLKPEDTAVYYCATEKRDVYFTAKYDYWGQGTQVTVSS”, which “polyreactivity (PSR sort gate)” value is on record?
The value was “low polyreactivity”.

Which “polyreactivity (PSR sort gate)” value does the source give for “QVQLVESGGGLVQAGGSLRLSCAASGYTFESYTMGWYRQAPGKEREFVAVISSSDTSTSYADSVKGRFTISRDNAKNTFYLQMNSLKPVDTAVYYCAAYSSPYYITYYWYNYDYWGQGTQVTVSS” here?
The value was “low polyreactivity”.

Which “polyreactivity (PSR sort gate)” value does the source give for “QVQLVESGGGLVQAGGSLRLSCAASGYTFFLNVMGWYRQAAGKEWELVAAISYSGGSTNYADSVKGRFTISRDNAKNTVYLQMNSLKPEDTAVYYCAVTTYSGLYGFEYWGQGTQVTVSS” here?
The value was “low polyreactivity”.

Which “polyreactivity (PSR sort gate)” value does the source give for “QVQLVESGGGLVQAGGSLRLSCAASGYTFGFYAMGWYRQAPGKERELVAAISSSGVSTSYADSVKGRFTISRDNAKNTVYLHMNSLKPEDNAVYYCNAPSYYYAYDYWGQGTQVTVSS” here?
The value was “high polyreactivity”.

For “QVQLVESGGGLVQAGGSLRLSCAASGYTFGPYAMGWYRQAPGKERELVAAITTRGGSTYYADSVKGRFTISRDNAKNTVYLQMNSLKPEDTAVYSCAAVVNSKSIQRVVRYYYWGQGTQVTVSS”, which “polyreactivity (PSR sort gate)” value is on record?
The value was “high polyreactivity”.

Which “polyreactivity (PSR sort gate)” value does the source give for “QVQLVESGGGLVQAGGSLRLSCAASGYTFGSSTMGWYRPAAGTERELVAAISNRGGPYYADAVKGRFTISRDNAKNTVYLQMNSLTPEDTAVYYCAVARRCGYDYWGQGTQVTVSS” here?
The value was “high polyreactivity”.

Which “polyreactivity (PSR sort gate)” value does the source give for “QVQLVESGGGLVQAGGSLRLSCAASGYTFGSYAMGWYRQAPGTERELVAAIRGSGGSTYYADSVKGRFTISRDNAKNTVYLQLNSLKPEDTAVYYGATSVRRGGRQLYNYWGQGTQVTVSS” here?
Its value is “high polyreactivity”.

For “QVQLVESGGGLVQAGGSLRLSCAASGYTFGYNARGWYRQAPGKERELVANITWRGGSTNYADSVKGRFTISRDNAKNTVYLQMNSLKPEDTAVYYCAADRPWYYGRYYYWGQGTQVTVSS”, which “polyreactivity (PSR sort gate)” value is on record?
The value was “high polyreactivity”.

Which “polyreactivity (PSR sort gate)” value does the source give for “QVQLVESGGGLVQAGGSLRLSCAASGYTFGYNVMGWYRQAPGKERELVAVISSGGTTYYADSVKGRFTISRDNAKNTVYLQMNSLKPEDTAVYYCNKRSAYKYRTHYGYYYWGQGTQVTVSS” here?
Its value is “high polyreactivity”.

With “QVQLVESGGGLVQAGGSLRLSCAASGYTFIVNAIGWYRQAPGKERQLVAAISRSGSSTRSADSVKWRFTISRDNAKNTVYLLMNRLKPEDTSVYYCAADLYSSEGRYYFWGQGTQVTVSS” as the sequence, how does the “polyreactivity (PSR sort gate)” value read?
Its value is “high polyreactivity”.

Which “polyreactivity (PSR sort gate)” value does the source give for “QVQLVESGGGLVQAGGSLRLSCAASGYTFIVNAMGWYRQAPGKERELVAAISRSGSSTRYADSVKWRFTISRDNAKNTVYLQMNSLKPEDTAVYYCGADLYSSEGRYYYWGQGTQVTVST” here?
Its value is “high polyreactivity”.

With “QVQLVESGGGLVQAGGSLRLSCAASGYTFKLYAMVWSRQAPGKERELVAAIRRGGTTNYADSVNGRFTISRDNSKNTVYFQMNSLKPADTAVYYCAADGWYPGFYYPYTEFDYWGQGTQVTVSS” as the sequence, how does the “polyreactivity (PSR sort gate)” value read?
The value was “high polyreactivity”.

Which “polyreactivity (PSR sort gate)” value does the source give for “QVQLVESGGGLVQAGGSLRLSCAASGYTFKRYAMGWSRQAPGKERELVAAISSSGSSTYYADSVKGRFTISRDNAKNTVYLQMNSLKPEDTAVYYCAAVYRYGYWGQGTQVTVSS” here?
The value was “high polyreactivity”.

For “QVQLVESGGGLVQAGGSLRLSCAASGYTFKRYAMGWYRQPPGKERELVAAITSRGGNTYYADSVKGRFTISRDNAKNTVYLQMNSLKPEDTAVYYCAVGGWSAYHLSQMYYWGQGTQVTVSS”, which “polyreactivity (PSR sort gate)” value is on record?
Its value is “high polyreactivity”.

For “QVQLVESGGGLVQAGGSLRLSCAASGYTFKTNDMGRYRQAPGKEREFVAAIDSGGNTYYADSVKGRFTISRDNAKNTVYLQMNSVKPEDTAVYYCGAYRDYQYDYWGQGTQVTVSS”, which “polyreactivity (PSR sort gate)” value is on record?
Its value is “low polyreactivity”.
